Measurements taken from IntAct's records for PubMed 29039417.

B1: BBSome complex member BBS2 (Homo sapiens), Q9BXC9 (parent)
chain: MLLPVFTLKLRHKISPRMVAIGRYDGTHPCLAAATQTGKVFIHNPHTRNQHVSASRVFQSPLESDVSLLSINQAVSCLTAGVLNPELGYDALLVGTQTNLLAYDVYNNSDLFYREVADGANAIVLGTLGDISSPLAIIGGNCALQGFNHEGSDLFWTVTGDNVNSLALCDFDGDGKKELLVGSEDFDIRVFKEDEIVAEMTETEIVTSLCPMYGSRFGYALSNGTVGVYDKTSRYWRIKSKNHAMSIHAFDLNSDGVNELITGWSNGKVDARSDRTGEVIFKDNFSSAIAGVVEGDYRMDGHIQLICCSVDGEIRGYLPGTAEMRGNLMDTSAEQDLIRELSQKKQNLLLELRNYEENAKAELASPLNEADGHRGIIPANTRLHTTLSVSLGNETQTAHTELRISTSNDTIIRAVLIFAEGIFTGESHVVHPSIHNLSSSICIPIVPPKDVPVDLHLKAFVGYRSSTQFHVFESTRQLPRFSMYALTSLDPASEPISYVNFTIAERAQRVVVWLGQNFLLPEDTHIQNAPFQVCFTSLRNGGHLHIKIKLSGEITINTDDIDLAGDIIQSMASFFAIEDLQVEADFPVYFEELRKVLVKVDEYHSVHQKLSADMADHSNLIRSLLVGAEDARLMRDMKTMKSRYMELYDLNRDLLNGYKIRCNNHTELLGNLKAVNQAIQRAGRLRVGKPKNQVITACRDAIRSNNINTLFKIMRVGTASS
partner: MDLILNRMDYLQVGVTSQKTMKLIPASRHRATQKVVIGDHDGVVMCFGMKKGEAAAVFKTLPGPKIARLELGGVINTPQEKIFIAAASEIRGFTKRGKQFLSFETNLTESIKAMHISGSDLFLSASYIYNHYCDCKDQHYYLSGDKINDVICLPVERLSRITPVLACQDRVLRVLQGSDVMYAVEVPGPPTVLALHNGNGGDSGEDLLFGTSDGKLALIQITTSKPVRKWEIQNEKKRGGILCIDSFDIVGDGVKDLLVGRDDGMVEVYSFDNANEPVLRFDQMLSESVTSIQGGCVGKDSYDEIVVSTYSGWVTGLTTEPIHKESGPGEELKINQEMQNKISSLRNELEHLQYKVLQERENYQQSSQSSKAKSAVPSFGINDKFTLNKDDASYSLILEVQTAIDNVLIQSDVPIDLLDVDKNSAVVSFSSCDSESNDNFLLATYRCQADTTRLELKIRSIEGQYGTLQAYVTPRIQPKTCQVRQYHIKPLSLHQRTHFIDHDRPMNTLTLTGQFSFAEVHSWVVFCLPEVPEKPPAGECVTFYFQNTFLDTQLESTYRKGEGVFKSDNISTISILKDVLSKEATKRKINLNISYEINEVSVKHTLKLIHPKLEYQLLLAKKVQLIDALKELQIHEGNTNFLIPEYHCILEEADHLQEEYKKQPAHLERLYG

Variants of: B1
Settings: with BBS7, Q8IWZ6-2

Which “effect of a mutation on the interaction” value does the source give for E420A here?
Its value is “with no effect”.

With E420K as the variant, how does the “effect of a mutation on the interaction” value read?
Its value is “with no effect”.

How did the “effect of a mutation on the interaction” value turn out when C442A was run?
Its value is “with no effect”.

Which “effect of a mutation on the interaction” value does the source give for C442K here?
The value was “with no effect”.

With C442E as the variant, how does the “effect of a mutation on the interaction” value read?
The value was “with no effect”.

With T397K as the variant, how does the “effect of a mutation on the interaction” value read?
Its value is “with no effect”.

Which “effect of a mutation on the interaction” value does the source give for T397A here?
Its value is “with no effect”.

With T397E as the variant, how does the “effect of a mutation on the interaction” value read?
The value was “with no effect”.

Which “effect of a mutation on the interaction” value does the source give for T395E here?
Its value is “with no effect”.

Which “effect of a mutation on the interaction” value does the source give for T395K here?
The value was “with no effect”.

With T395A as the variant, how does the “effect of a mutation on the interaction” value read?
Its value is “with no effect”.

How did the “effect of a mutation on the interaction” value turn out when L402K was run?
Its value is “disrupting interaction strength”.

With L402C as the variant, how does the “effect of a mutation on the interaction” value read?
Its value is “disrupting interaction strength”.

How did the “effect of a mutation on the interaction” value turn out when L402E was run?
The value was “with no effect”.

With L402A as the variant, how does the “effect of a mutation on the interaction” value read?
Its value is “disrupting interaction strength”.

For T424A, which “effect of a mutation on the interaction” value is on record?
Its value is “with no effect”.

For T424K, which “effect of a mutation on the interaction” value is on record?
The value was “with no effect”.

Which “effect of a mutation on the interaction” value does the source give for T424E here?
The value was “with no effect”.

With I445E as the variant, how does the “effect of a mutation on the interaction” value read?
The value was “disrupting interaction strength”.

I445K was tested. Which “effect of a mutation on the interaction” value did it give?
The value was “with no effect”.

For I445A, which “effect of a mutation on the interaction” value is on record?
Its value is “disrupting interaction strength”.

With G392K as the variant, how does the “effect of a mutation on the interaction” value read?
Its value is “with no effect”.

How did the “effect of a mutation on the interaction” value turn out when G392E was run?
The value was “with no effect”.

G392A was tested. Which “effect of a mutation on the interaction” value did it give?
Its value is “with no effect”.

With L416E as the variant, how does the “effect of a mutation on the interaction” value read?
Its value is “with no effect”.

Which “effect of a mutation on the interaction” value does the source give for L416A here?
The value was “with no effect”.

For L416K, which “effect of a mutation on the interaction” value is on record?
Its value is “with no effect”.

How did the “effect of a mutation on the interaction” value turn out when Q396A was run?
Its value is “with no effect”.

Q396K was tested. Which “effect of a mutation on the interaction” value did it give?
The value was “with no effect”.

Q396E was tested. Which “effect of a mutation on the interaction” value did it give?
The value was “with no effect”.

Which “effect of a mutation on the interaction” value does the source give for S440K here?
Its value is “with no effect”.

S440A was tested. Which “effect of a mutation on the interaction” value did it give?
Its value is “disrupting interaction strength”.

Which “effect of a mutation on the interaction” value does the source give for S440F here?
Its value is “disrupting interaction strength”.

How did the “effect of a mutation on the interaction” value turn out when S440E was run?
Its value is “disrupting interaction strength”.

E401A was tested. Which “effect of a mutation on the interaction” value did it give?
Its value is “with no effect”.

How did the “effect of a mutation on the interaction” value turn out when E401K was run?
The value was “with no effect”.

How did the “effect of a mutation on the interaction” value turn out when H399K was run?
The value was “with no effect”.

With H399E as the variant, how does the “effect of a mutation on the interaction” value read?
The value was “with no effect”.

For H399A, which “effect of a mutation on the interaction” value is on record?
The value was “with no effect”.

Which “effect of a mutation on the interaction” value does the source give for E426K here?
The value was “with no effect”.

For E426A, which “effect of a mutation on the interaction” value is on record?
The value was “with no effect”.

How did the “effect of a mutation on the interaction” value turn out when V446A was run?
Its value is “with no effect”.

For T400E, which “effect of a mutation on the interaction” value is on record?
Its value is “with no effect”.

For T400K, which “effect of a mutation on the interaction” value is on record?
The value was “with no effect”.

For T400A, which “effect of a mutation on the interaction” value is on record?
The value was “with no effect”.

How did the “effect of a mutation on the interaction” value turn out when S438A was run?
Its value is “with no effect”.

S438E was tested. Which “effect of a mutation on the interaction” value did it give?
The value was “with no effect”.

For S438K, which “effect of a mutation on the interaction” value is on record?
Its value is “with no effect”.

T410K was tested. Which “effect of a mutation on the interaction” value did it give?
The value was “with no effect”.

How did the “effect of a mutation on the interaction” value turn out when T410A was run?
The value was “with no effect”.

With T410E as the variant, how does the “effect of a mutation on the interaction” value read?
The value was “with no effect”.

H431A was tested. Which “effect of a mutation on the interaction” value did it give?
Its value is “with no effect”.

How did the “effect of a mutation on the interaction” value turn out when H431K was run?
The value was “with no effect”.

Which “effect of a mutation on the interaction” value does the source give for H431E here?
Its value is “with no effect”.

With V389K as the variant, how does the “effect of a mutation on the interaction” value read?
Its value is “disrupting interaction strength”.

How did the “effect of a mutation on the interaction” value turn out when V389E was run?
The value was “with no effect”.

Which “effect of a mutation on the interaction” value does the source give for V389A here?
The value was “with no effect”.

L391E was tested. Which “effect of a mutation on the interaction” value did it give?
Its value is “with no effect”.

L391A was tested. Which “effect of a mutation on the interaction” value did it give?
The value was “with no effect”.

With L391K as the variant, how does the “effect of a mutation on the interaction” value read?
The value was “with no effect”.

T386K was tested. Which “effect of a mutation on the interaction” value did it give?
The value was “with no effect”.

T386E was tested. Which “effect of a mutation on the interaction” value did it give?
Its value is “with no effect”.

With T386A as the variant, how does the “effect of a mutation on the interaction” value read?
The value was “with no effect”.

Which “effect of a mutation on the interaction” value does the source give for F418A here?
The value was “with no effect”.

For F418K, which “effect of a mutation on the interaction” value is on record?
The value was “with no effect”.

Which “effect of a mutation on the interaction” value does the source give for F418E here?
The value was “with no effect”.

S390E was tested. Which “effect of a mutation on the interaction” value did it give?
Its value is “with no effect”.

Which “effect of a mutation on the interaction” value does the source give for S390A here?
Its value is “with no effect”.

For S390K, which “effect of a mutation on the interaction” value is on record?
The value was “with no effect”.

Which “effect of a mutation on the interaction” value does the source give for R403A here?
The value was “with no effect”.

Which “effect of a mutation on the interaction” value does the source give for R403K here?
The value was “with no effect”.

R403E was tested. Which “effect of a mutation on the interaction” value did it give?
Its value is “with no effect”.

For N393A, which “effect of a mutation on the interaction” value is on record?
The value was “with no effect”.

For N393E, which “effect of a mutation on the interaction” value is on record?
Its value is “with no effect”.

For N393K, which “effect of a mutation on the interaction” value is on record?
The value was “with no effect”.

With N408K as the variant, how does the “effect of a mutation on the interaction” value read?
The value was “with no effect”.

Which “effect of a mutation on the interaction” value does the source give for N408A here?
The value was “with no effect”.

N408S was tested. Which “effect of a mutation on the interaction” value did it give?
The value was “disrupting interaction strength”.

For N408E, which “effect of a mutation on the interaction” value is on record?
The value was “with no effect”.

Which “effect of a mutation on the interaction” value does the source give for T406K here?
Its value is “with no effect”.

How did the “effect of a mutation on the interaction” value turn out when T406E was run?
Its value is “with no effect”.

T406A was tested. Which “effect of a mutation on the interaction” value did it give?
Its value is “with no effect”.

V415A was tested. Which “effect of a mutation on the interaction” value did it give?
Its value is “with no effect”.

Which “effect of a mutation on the interaction” value does the source give for V415K here?
Its value is “with no effect”.

How did the “effect of a mutation on the interaction” value turn out when V415E was run?
Its value is “with no effect”.

For F423K, which “effect of a mutation on the interaction” value is on record?
The value was “with no effect”.

Which “effect of a mutation on the interaction” value does the source give for F423E here?
The value was “with no effect”.

How did the “effect of a mutation on the interaction” value turn out when F423A was run?
Its value is “with no effect”.

L387K was tested. Which “effect of a mutation on the interaction” value did it give?
The value was “disrupting interaction strength”.
